This passage reports Kd results from patent US20240218054A1 (MABLOC, published 2024).

Residue numbers refer to the chain shown, from its start.

B1: ADI-49133 (antibody, V domains shown)
VH: EVQLLESGGGLVQPGGSLRLSCAASGFTFRNYAMNWVRQTPGKGLEWVSGISGGGDSTNYADSVKGRFTISRDNSRNTLYLQLNSLRAEDTAVYYCAKDLAVSTPRYWFDSWGQGTLVTVSS
VL: DIQMTQSPSSLSASVGDRVTITCRASQTISVDLNWYQHKPGKAPKLLIFAASTLQSGVPSRFSGSGSGTDFTLTIRSLQPEDFATYYCQQSYSIPRITFGQGTRLEIK
notes: full-length IgG; also called Antibody Number 6
B2: ADI-42849 (antibody, V domains shown)
VH: QVQLVESGGGLVKPGGSLRLSCAASGFTFSDYYMSWIRQAPGKGLEWVSYITSSGNTMYYADSVKGRFTISRDNAKNSLYLQMNSLRAEDTAVYYCARDSNFNSNLDYWGQGTLVTVSS
VL: SYELTQPPSVSVAPGQTARITCGGHNVGSKSVHWYQQKPGQAPVLVVYDDSDRPSGIPERFSGSNSGNTATLTISRVEAGDEADYYCQVWDSSSDHPWVFGGGTKVTVL
notes: full-length IgG; also called Antibody Number 50
B3: ADI-42154 (antibody, V domains shown)
VH: EVQLVQSGGGLVQPGGSLRLSCAASGFTFSTYWMSWVRQAPGKGLEWVANIKQDGSEKYYVDSVKGRFTISRDNAKNSLYLQMNSLRAEDTAVYYCARDISCISTSCYGGYYYYGMDVWGQGTTVTVSS
VL: not shown
notes: full-length IgG; also called Antibody Number 55
B4: ADI-42831 (antibody, V domains shown)
VH: EVQLVESGGGLVQPGGSLRLSCAASGFTFINYAMTWVRQAPGKGLEWVSAISGNGDGTYYADSVKGRFTLSRDNAKNTIYLHMSALRDEDTALYYCAKDQGVTTDWPSDYWGQGTLVTVSS
VL: DIRLTQSPSTLSASVGDRVTVTCRASQNINTYLAWYQQIPGKAPRLLIYRASTLESGVPSRFSGSGSGTEFTLTINSLQPDDYATYYCQHYETYSVRFGQGTKVEIK
notes: full-length IgG; also called Antibody Number 46
B5: ADI-42821 (antibody, V domains shown)
VH: EVQLLESGGGLVPPGGSLRLSCAASGFTFSNYAMSWVRQAPGKGLEWVSAISGSGDSTYYADSVKGRFTLSRDTSKKMVYLHMSNLRDDDTAVYYCARDQGFTTDWPCDYWGQGTLVTVSS
VL: B4 VL with R3V, T53S, N76S, Y83F, E92N, T93S, Y94F, R97K
notes: full-length IgG; also called Antibody Number 49
B6: ADI-48913 (antibody, V domains shown)
VH: EVQLLESGPGLVKPSETLSLTCTVSGGSISSYYWSWIRQPAGKGLELIGRIYTSGSGNYNPSLKRRVTMSVDTSKNQISLRLNSVTAADTAVYYCARERGGYFTEPFDIWGQGTMVTVSS
VL: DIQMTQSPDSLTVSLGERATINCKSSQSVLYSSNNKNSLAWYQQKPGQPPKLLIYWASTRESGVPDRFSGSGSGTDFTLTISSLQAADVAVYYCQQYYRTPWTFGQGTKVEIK
notes: full-length IgG; also called Antibody Number 60
B7: ADI-45154 (antibody, V domains shown)
VH: EVQLVESGGGVVQPGRSLRLSCAASGFTFSNYGMHWVRQAPGKGLEWVAVISYDGSNKYYADSVKGRFTISRDDSKNTLYLQVNSLRAEDTAVYYCAKDICSGDCGGGDYWGQGTLVTVSS
VL: QSVLIQPPSASGSPGQSVTISCTGTSSDVGGYNYVSWYQQHPGKAPKLMIYEVSKRPSGVPDRFSGSKSGNTASLTVSGLQAEDGADYYCSSYAGSNNWVVFGGGTKLTVL
notes: full-length IgG; also called Antibody Number 53
B8: ADI-49138 (antibody, V domains shown)
VH: QVQLVESGGGVVQPGRSLRLSCAASGFTFSNSGMHWVRQAPGKGLEWVSVIWYDESNKYYADSVKGRFTISRDNSKNTVYLQMNTLRAEDTAVYYCARDAYASGDGGIDYWGQGALVTVSS
VL: QPVLTQSASVSGSPGQSITISCTGTSSDVGGYKYVSWYQQHPGKAPKLMIYEVSNRPSGVSIRFSGSKSGNTASLTISGLQAADEADYYCSSYRSSGTPYVFGTGTKVTVL
notes: full-length IgG; also called Antibody Number 44
B9: ADI-45097 (antibody, V domains shown)
VH: EVQLVESGGGVVQPGRSLRLSCAASGFTFNSHGMHWVRQAPGKGLEWVAVISYDGTKKYFADSVKGRFTISRDNSKNTLYLQMSSLRADDTAVYYCAKDSSTSWYQVVYHIDYWGQGTLVTVSS
VL: QSVVTQPPSVSAAPGQKVTISCSGSSSNIGNNYVAWYQQLPGRAPKLLIHDNKKRPSGIPDRFSGSASGTSATLGITGLQTGDEADYYCETWDSSLNAVVFGGGTKLTVL
notes: full-length IgG; also called Antibody Number 5
B10: ADI-46001 (antibody, V domains shown)
VH: EVQLVESGGGLVKPGGSLRLSCAASGFTFSDYYMSWIRQAPGKGLEWVSYISSSGNTIYYADSVKGRFTISRDNAKNSLYLQLNSLRAGDTAVYYCARDSNYFYGLDVWGQGTTVTVSS
VL: QPVLTQPPSVSVAPGQTARITCGGNNIGSKSVHWYQQKPGQAPMLVIYSNSDRPSGIPERFSGSNSGITATLTISRVEAGDEADYHCQVWDTSIDHHWVFGGGTKLTVL
notes: full-length IgG; also called Antibody Number 52
B11: ADI-45085 (antibody, V domains shown)
VH: EVQLVESGGGLVQPGGSLRLSCAASGFTFSSYAMSWVRQAPGKGLEWVSTFSGRGGSTYYADFVKGRFTISRDNSKNTLYLQMNSLRAEDTAVYYCAKYYDSSGYYYFDYWGQGTLVTVSS
VL: DIQLTQSPSTLSASVGDRVTITCRASQSISTWLAWYQQKPGKAPKLLIYRASSLESGVPSRFSASGSGTEFTLSISSLQPDDFATYYCKQYNRNPYTFGQGTKVEIK
notes: full-length IgG; also called Antibody Number 57
B12: ADI-46591 (antibody, V domains shown)
VH: QVQLQQWGPELVKPSGTLSLTCTVSGGSISSISWWSWVRQSPGKGLEWIGEINHSGSTVYNPSLKSRVTISVDKSKKQFSLKLRSVTAADTAVYYCVRYCSSTSCYGLNGMDVWGQGTTVTVSS
VL: QSVLTQPPSVSAAPGQKVTISCSGSSSNIGSNFVSWYQQLPGTAPKLLIYDNNKRPSGIPDRFSGSKSGTSATLAITGLQTGDEADYYCGTWDTRLSALFGGGTKVTVL
notes: full-length IgG; also called Antibody Number 39
B13: ADI-48908 (antibody, V domains shown)
VH: EVQLLESGGGLVQPGRSLRLSCAVSGFTFAEYAMHWVRQAPGKGLEWVSSISWNSGRIGYVDSVRGRFTISRDNAKNSLYLQMNSLRVEDTAFYYCAKGYDSSGYYWADYWGQGTLVTVSS
VL: EIVMTQSPATLSVSPGERATLSCRASQSVSFNLAWYQQKPGQAPRLLISRASTRAAGVPARFSGSGSGTEFTLTISSLQSEDFAVYYCQQYNNWPPLTFGGGTKLEIK
notes: full-length IgG; also called Antibody Number 59
B14: ADI-48916 (antibody, V domains shown)
VH: EVQLVESGGGVVQPGRSLRLSCAASGFTFSNSGMHWVRQAPGKGLEWVAVIWYDSRNQNYADSVKGRFTISRDNSKNTLFLQMNSLRAEDTAVYYCARDYYASGDGSIDYWGQGTLVTVSS
VL: DIQVTQSPSSLSASVGGRVTITCRASQGIRNDLGWYQRKPGKAPKRLIYAASSLQSGVPSRFSGSGSGTEFTLTISSLQPEDFATYYCLQHNSYPLTFGGGTKVDIK
notes: full-length IgG; also called Antibody Number 56
B15: ADI-50531 (antibody, V domains shown)
VH: EVTLKESGPTLVKPTQTLTLTCTFSGFSLSTSGVGVGWIRQPPGKALEWLALIYWDDDKRYSPSLKSRLTITKDTSKNQVVLTMTNMDPVDTATYYCAHSPRRITMVRGVIITWGDGMDVWGQGTTVTVSS
VL: QPVLTQPASVSGSPGQSITISCTGTSSDVGGYNYVSWYQQHPGKAPKLMIYDVSNRPSGVSNRFSGSKSGNTASLTISGLQAEDEADYYCSSYTSSSTLAVFGGGTKLTVL
notes: full-length IgG; also called Antibody Number 42
B16: ADI-49161 (antibody, V domains shown)
VH: QVQLVQSGAEVKKPGASVKVSCKASGYTFNTYAMTWVRQAPGQGLEWMGWISTYNGNTVFGQKFQGRVTLSTDTSTSTAYMELRSLTSDDTAVYYCAREDDDYYSMDVWGQGTTVTVSS
VL: QPVLTQPASVSGSPGQSITISCTGTSTDVGGYNYVSWYQQYPGKAPKLIIYDVTNRPSGVSHRFSGSKSGNTASLTISGLQAEDEADYYCSSYTTTSLVIFGGGTKLTVL
notes: full-length IgG; also called Antibody Number 54
B17: ADI-42230 (antibody, V domains shown)
VH: QVQLVESGGGVVQPGRSLRLSCAASGFTFSSYAMHWVRQAPGKGLEWVAVISHDGSNKYYADSVKGRFTISRDNSKNTLYLQINSLRAEDTAVYYCPRDGLPGANQYFFYYGMDVWGQGTTVTVSS
VL: DIQVTQSPSSLSASVGDRVTITCRASQGISNYLAWYQQKPGKVPKLLIFAASTLRSGVPSRFRGSGSGTDFTLTISSLQPEDVATYYCQKYNSAPLTFGGGTKVEIK
notes: full-length IgG; also called Antibody Number 47
B18: ADI-42211 (antibody, V domains shown)
VH: QVQLVESGGGVVQPGRSLRLSCGGSGFTFSSYGMHWVRQAPGKGLEWVAVISYDGSKKYSADSVKGRFTISRDNSKNTLYLQMNSLRAEDTAVYYCAKGSVSVAGAEDYWGQGTLVTVSS
VL: B17 VL with V4M, N31S, Y36F, F49Y, R55Q, R63S, L96Q, G100Q, E105D
notes: full-length IgG; also called Antibody Number 58
B19: ADI-48955 (antibody, V domains shown)
VH: QVQLVQSGGGLVNPGGSLRLSCAASGFTFTDYYMSWIRQAPGKGLEWVSYISSSGNTRYYADSVKGRFTISRDNAKNSLSLQMNSLRPEDTAIYYCARDGSLVNAIDYWGQGTLVTVSS
VL: QSVLTQPPSVSAAPGQKVTISCSGSSSNFGNDYVSWYQQLPGTAPKLLIYDNDKRPSGIPDRFSGSKSGTSATLGITGLQTGDEADYYCGTWDTSLSAAWVFGGGTKVTVL
notes: full-length IgG; also called Antibody Number 40
B20: ADI-46586 (antibody, V domains shown)
VH: B19 VH with Q1E, Q6E, N13K, S52T, R58K, S80F, P88A, I93V, Y95F, L102M
VL: B19 VL with S2P, F29I, D53N, A85G, T94S
notes: full-length IgG; also called Antibody Number 43
B21: ADI-42818 (antibody, V domains shown)
VH: EVQLVESGPGLVKPSGTLSLTCAVSGGSITGSNWWSWVRQPPGKGLEWIGEIYHTGSTSYNPSLKSRVTISVDNSKNHFSLRLTSVTAADTAVYYCARVRWSGSTSWDLDYWGQGTLVTVSS
VL: B19 VL with L4V, F29I, D32N, D53N, K67T, D86V, L96P, A99G, W100G
notes: full-length IgG; also called Antibody Number 41
B22: ADI-42847 (antibody, V domains shown)
VH: EVQLLESGPRLVKPSETLSLTCTVSGGSVRGGSHYWSWIRQPPGKGLEWIGYVYDSGSTNYNPSLKSRVSISVDMSKKQFSLKLRSVTAADTAVYHCVRVEEYVNNEEVRDYWGQGTMVTVSS
VL: DIVMTQTPATLSLSPGERATLSCRASQSVSSYLAWYQQKPGQAPRLLIYGASNRATGIPARFSGSGSGTDFTLTISSLEPEDFAVYYCLQRTNWPFTFGPGTKVEIK
notes: full-length IgG; also called Antibody Number 48

The target in this assay is T1, recombinant YFV E protein (soluble E, sE; YFV Asibi strain) (Yellow fever virus, Asibi strain, UniProt Q6DV88 286-678).
T1 construct: also called YFV E antigen; YFV E monomer
T1 sequence (Q6DV88 286-678): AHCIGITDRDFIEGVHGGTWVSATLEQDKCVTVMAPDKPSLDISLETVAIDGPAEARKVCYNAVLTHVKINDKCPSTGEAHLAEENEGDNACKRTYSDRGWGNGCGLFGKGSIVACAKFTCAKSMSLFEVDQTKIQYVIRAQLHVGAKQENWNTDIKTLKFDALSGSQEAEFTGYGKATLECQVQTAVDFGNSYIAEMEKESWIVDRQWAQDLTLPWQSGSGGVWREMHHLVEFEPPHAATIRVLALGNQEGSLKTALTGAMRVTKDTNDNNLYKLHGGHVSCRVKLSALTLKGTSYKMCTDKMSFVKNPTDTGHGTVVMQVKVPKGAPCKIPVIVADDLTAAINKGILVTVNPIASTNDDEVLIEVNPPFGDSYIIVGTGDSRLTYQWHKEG
Put plainly: BLI monovalent (IgG on tip).
As usually defined, the Kd is the concentration at which binding is half-saturated. Turning to B1, the Kd was 6.91 nM. In the case of B2, the Kd is 1.98 nM. The value for B3 was 164 nM; that for B4 was 19.6 nM.

With B5, the dissociation constant Kd came out at 12.1 nM. The value for B6 was 186 nM; that for B7 was over 100 nM. Under B8 stands 17.5 nM.

B9: the Kd is 1.62 nM.

Regarding B10, the Kd was determined as 6.17 nM. In the case of B11, the Kd amounted to 152 nM. Consider B12, for which the Kd stood at 9.6 nM.

Take B13: the Kd came out at 1.76 nM. The value for B14 was 393 nM; that for B15 was over 100 nM; that for B16 was 1.81 nM.

As for B17, the Kd was determined as 1.99 nM. The value for B18 was 1.64 nM; that for B19 was 2.05 nM; that for B20 was 2.16 nM.

For the molecule B21, the Kd is 2.41 nM. Under B22 stands 3.21 nM.
